These results are taken from the supplement of paper PMC10567573.

The nature of this data set: protein stability index of a GFP-peptide fusion (GPS, HEK-293T) (PSI 1-6); higher = more stable. The following applies: c terminus: a fixed tail appended.

± gives the standard deviation.
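Also: 24-mer peptide tiles fused after GFP, lentivirally expressed, FACS-sorted into six equal bins by GFP/DsRed ratio, decoded by Illumina sequencing, PSI is the read-weighted mean bin number.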

For the sequence PFAYLTVLDLSKSLSAALLTAALL [POMT2], the protein stability index is, setting by setting: (treatment: DMSO) 2.98 ± 0.23; (treatment: MLN4924 1 uM, 8 h) 3.02 ± 0.16.

On to PFREQSFLCAAGDAGEESRVQVLK [TIAF1], for which the protein stability index by setting is: (treatment: DMSO) 4.54 ± 0.25; (treatment: MLN4924 1 uM, 8 h) 4.6 ± 0.16.

PGAGVPSGSGGTVAPATMGSARSH [ZBTB22]: the protein stability index by setting is: (treatment: DMSO) 4.75 ± 0.16; (treatment: MLN4924 1 uM, 8 h) 4.8 ± 0.15.

PGLLSLATTSASDSLKPEQLDIEE [TFE3] showed a protein stability index (treatment: DMSO) of 5.35 ± 0.23 and a protein stability index (treatment: MLN4924 1 uM, 8 h) of 5.55 ± 0.17.

Consider PGRGHTHAAQGGPLLCPGCQGQPQ [ELOA2], for which the protein stability index reads like this: (treatment: DMSO) 4.38 ± 0.26; (treatment: MLN4924 1 uM, 8 h) 4.47 ± 0.14.

Consider PGSMSEVQELCKQLHAKIDAAEEE [TNNI2], for which the protein stability index is, setting by setting: (treatment: DMSO) 5.38 ± 0.27; (treatment: MLN4924 1 uM, 8 h) 5.36 ± 0.11.

PGYLPYSPEPPSLYGALNPQYEFK [IRX6]: the protein stability index runs as follows: (treatment: DMSO) 2.87 ± 0.36; (treatment: MLN4924 1 uM, 8 h) 3.16 ± 0.33.

With PHTPGKPTSSCTSRSAPPGLQAPP [FOXJ1], the protein stability index by setting is: (treatment: DMSO) 4.42 ± 0.19; (treatment: MLN4924 1 uM, 8 h) 4.86 ± 0.18.

As to PKDIYSSFGFPRTVKHIDAALSEE [MMP1], the protein stability index reads like this: (treatment: DMSO) 3.9 ± 0.29; (treatment: MLN4924 1 uM, 8 h) 4.04 ± 0.23.

In the case of PKKPIGGNIIAHASTTRLYLRKGR [RAD51], the protein stability index runs as follows: (treatment: DMSO) 3.79 ± 0.29; (treatment: MLN4924 1 uM, 8 h) 3.74 ± 0.17.

On to PKQLYFSARQGELQKVLLMLVDGI [EHMT1], for which the protein stability index reads like this: (treatment: DMSO) 2.66 ± 0.48; (treatment: MLN4924 1 uM, 8 h) 2.35 ± 0.58.

As to PKTGRISVPIDLQKVDQFDPFTVP [PRIM1], the protein stability index was 3.6 ± 0.33 (treatment: DMSO) and 3.34 ± 0.25 (treatment: MLN4924 1 uM, 8 h).

As for PKTVQQPTESEPVTINIQDLLSCS [MATN2], the protein stability index reads like this: (treatment: DMSO) 4.35 ± 0.17; (treatment: MLN4924 1 uM, 8 h) 4.32 ± 0.16.

For the sequence PKVEYVWRNIILMSLLHLGALYGI [SCD], the protein stability index runs as follows: (treatment: DMSO) 3.26 ± 0.5; (treatment: MLN4924 1 uM, 8 h) 3.48 ± 0.06.

Consider PLAVENQAGGEGAGGELGISLNMC [PBXIP1], for which the protein stability index by setting is: (treatment: DMSO) 4.22 ± 0.25; (treatment: MLN4924 1 uM, 8 h) 4.12 ± 0.24.

For PLLCPSYQSYFKTIEELQQKILCS [KRT33B], the protein stability index amounted to 2.56 ± 0.3 (treatment: DMSO) and 2.56 ± 0.17 (treatment: MLN4924 1 uM, 8 h).

With PLLKDEGFAVKALWGRTQEEAEEL [GFOD1], the protein stability index reads like this: (treatment: DMSO) 5 ± 0.62; (treatment: MLN4924 1 uM, 8 h) 4.915 ± 0.038.

With PLSWAPCGPIAGSRQALSFEVPPC, the protein stability index runs as follows: (treatment: DMSO) 3.21 ± 0.29; (treatment: MLN4924 1 uM, 8 h) 3.07 ± 0.19.

On to PLTSTQGLEHAAAGGSSGTTARER [FBF1], for which the protein stability index reads like this: (treatment: DMSO) 5.36 ± 0.24; (treatment: MLN4924 1 uM, 8 h) 5.33 ± 0.3.

For the sequence PMAADEGSAEKQAGEAHMAADGET [EHMT1], the protein stability index reads like this: (treatment: DMSO) 5.6 ± 0.17; (treatment: MLN4924 1 uM, 8 h) 5.66 ± 0.082.

On to PMPVSQECFETLRGDERILSILRH [CHGA], for which the protein stability index is, setting by setting: (treatment: DMSO) 3.29 ± 0.23; (treatment: MLN4924 1 uM, 8 h) 3.02 ± 0.46.

PMVARYIRINPQSWFDNGSICMRM [CPXM2]: the protein stability index is, setting by setting: (treatment: DMSO) 2.82 ± 1.1; (treatment: MLN4924 1 uM, 8 h) 1.95 ± 0.38.

On to PNGVQLSPAEDFVLVAETTMARIR [APMAP], for which the protein stability index by setting is: (treatment: DMSO) 3.21 ± 0.21; (treatment: MLN4924 1 uM, 8 h) 3.5 ± 0.22.

On to PPAALESSDSANTTIEDEDAKARK [CAMK2B], for which the protein stability index amounted to 5.65 ± 0.15 (treatment: DMSO) and 5.7 ± 0.13 (treatment: MLN4924 1 uM, 8 h).

Consider PPARGPRMSYGGSTCHAYSNTRDR [RBMY1A1], for which the protein stability index by setting is: (treatment: DMSO) 4.1 ± 0.098; (treatment: MLN4924 1 uM, 8 h) 4.07 ± 0.12.

Turning to PPDTVSRTGLEKAAAGAVGLERRD [SPDEF], the protein stability index stood at 5.04 ± 0.15 (treatment: DMSO) and 5.29 ± 0.39 (treatment: MLN4924 1 uM, 8 h).

Regarding PPGAEEPQAPPASRDEAALPELLL [RETREG3], the protein stability index stood at 5.25 ± 0.31 (treatment: DMSO) and 5.39 ± 0.17 (treatment: MLN4924 1 uM, 8 h).

Take PPGLPRVSAYVDTTADLDRKLSFS [SPATS1]: the protein stability index (treatment: DMSO) was 3.79 ± 0.26 and the protein stability index (treatment: MLN4924 1 uM, 8 h) came out at 3.96 ± 0.23.

For the sequence PPKVKAEDGMQCLQLKETLATQEP [DLC1], the protein stability index is 5.3 ± 0.17 (treatment: DMSO) and 5.16 ± 0.2 (treatment: MLN4924 1 uM, 8 h).
